{
  "source": "paper PMC8175722",
  "key": {"[1]": {"target": "mannosylated surface IgM (sIgM-Mann) of the FL-derived cell line WSU-FSCCL (human (endogenous in WSU-FSCCL)) (UniProt P01871)", "sequence (P01871 whole entry, looked up)": "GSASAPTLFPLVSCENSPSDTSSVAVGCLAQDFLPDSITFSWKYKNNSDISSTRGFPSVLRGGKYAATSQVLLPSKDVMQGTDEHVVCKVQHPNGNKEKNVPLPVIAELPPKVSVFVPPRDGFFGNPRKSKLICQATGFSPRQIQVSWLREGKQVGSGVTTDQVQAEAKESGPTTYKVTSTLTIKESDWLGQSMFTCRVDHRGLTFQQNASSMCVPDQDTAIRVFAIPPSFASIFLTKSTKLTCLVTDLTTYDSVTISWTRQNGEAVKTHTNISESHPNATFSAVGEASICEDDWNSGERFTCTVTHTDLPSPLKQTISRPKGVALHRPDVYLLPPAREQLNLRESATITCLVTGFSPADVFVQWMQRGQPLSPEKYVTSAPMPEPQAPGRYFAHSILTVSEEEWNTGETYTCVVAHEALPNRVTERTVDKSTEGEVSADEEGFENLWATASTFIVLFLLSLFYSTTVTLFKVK"}, "[2]": {"target": "mannosylated surface IgM (sIgM-Mann) of the FL-derived cell line WSU-FSCCL (human (endogenous in WSU-FSCCL)) (UniProt P01871)", "remark": "listed apart in the source"}, "[3]": {"target": "DC-SIGN-HA (DC-SIGN fused to the HA epitope tag) (UniProt Q9NNX6)", "experiment": "SEC; analytical gel filtration of recombinant DC-SIGN-Fc and DC-SIGN-HA; data not shown; the high Stokes radius prevented a more accurate measurement of molecular mass"}, "[4]": {"target": "T1, DC-SIGN-Fc (recombinant DC-SIGN fused to Fc), Q9NNX6", "T1 chain": "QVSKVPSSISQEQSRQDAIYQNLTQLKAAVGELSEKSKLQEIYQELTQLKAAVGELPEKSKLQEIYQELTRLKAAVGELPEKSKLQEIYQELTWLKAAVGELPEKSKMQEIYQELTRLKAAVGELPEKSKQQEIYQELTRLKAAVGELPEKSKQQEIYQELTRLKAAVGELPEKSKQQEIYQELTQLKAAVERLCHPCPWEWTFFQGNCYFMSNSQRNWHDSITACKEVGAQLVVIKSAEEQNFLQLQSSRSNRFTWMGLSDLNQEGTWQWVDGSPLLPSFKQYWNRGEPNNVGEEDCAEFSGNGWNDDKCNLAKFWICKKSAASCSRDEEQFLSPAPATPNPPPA", "experiment": "SEC; analytical gel filtration of recombinant DC-SIGN-Fc and DC-SIGN-HA; data not shown; the high Stokes radius prevented a more accurate measurement of molecular mass", "settings": "remark: other sources report otherwise"}},
  "data": [
    {"molecule": "DC-SIGN-Fc (recombinant DC-SIGN fused to Fc) (from UniProt Q9NNX6 59-404) (Fc fusion)", "values": [
      {"measurement": "inhibition of the anti-IgM-induced iCa2+ flux in WSU-FSCCL cells after pre-exposure to DC-SIGN-Fc", "setting": "[1]", "value": 80, "unit": "%"},
      {"measurement": "recovery of the anti-IgM-induced iCa2+ response in WSU-FSCCL cells after removal of pre-bound DC-SIGN-Fc with mannan (15 or 30 min at 37 °C)", "setting": "[2]", "value": 50, "unit": "%"}
    ]},
    {"molecule": "DC-SIGN-HA (DC-SIGN fused to the HA epitope tag) (from UniProt Q9NNX6 1-404) (natural protein)", "values": [
      {"measurement": "inhibition of the anti-IgM-induced iCa2+ flux in WSU-FSCCL cells after pre-exposure to DC-SIGN-HA", "setting": "[1]", "value": 50, "unit": "%"},
      {"measurement": "stoichiometry N", "setting": "[3]", "value": "> 4"}
    ]},
    {"molecule": "DC-SIGN-Fc (recombinant DC-SIGN fused to Fc), Q9NNX6 59-404 (Fc fusion) QVSKVPSSISQEQSRQDAIYQNLTQLKAAVGELSEKSKLQEIYQELTQLKAAVGELPEKSKLQEIYQELTRLKAAVGELPEKSKLQEIYQELTWLKAAVGELPEKSKMQEIYQELTRLKAAVGELPEKSKQQEIYQELTRLKAAVGELPEKSKQQEIYQELTRLKAAVGELPEKSKQQEIYQELTQLKAAVERLCHPCPWEWTFFQGNCYFMSNSQRNWHDSITACKEVGAQLVVIKSAEEQNFLQLQSSRSNRFTWMGLSDLNQEGTWQWVDGSPLLPSFKQYWNRGEPNNVGEEDCAEFSGNGWNDDKCNLAKFWICKKSAASCSRDEEQFLSPAPATPNPPPA", "values": [
      {"measurement": "stoichiometry N", "setting": "[4]", "value": "> 4"}
    ]}
  ]
}
